Target: Human IgM (Homo sapiens, UniProt P01871)
Assay: IgM binding assay (human IgM)

Sequence of Human IgM (P01871 1-433 limits assumed): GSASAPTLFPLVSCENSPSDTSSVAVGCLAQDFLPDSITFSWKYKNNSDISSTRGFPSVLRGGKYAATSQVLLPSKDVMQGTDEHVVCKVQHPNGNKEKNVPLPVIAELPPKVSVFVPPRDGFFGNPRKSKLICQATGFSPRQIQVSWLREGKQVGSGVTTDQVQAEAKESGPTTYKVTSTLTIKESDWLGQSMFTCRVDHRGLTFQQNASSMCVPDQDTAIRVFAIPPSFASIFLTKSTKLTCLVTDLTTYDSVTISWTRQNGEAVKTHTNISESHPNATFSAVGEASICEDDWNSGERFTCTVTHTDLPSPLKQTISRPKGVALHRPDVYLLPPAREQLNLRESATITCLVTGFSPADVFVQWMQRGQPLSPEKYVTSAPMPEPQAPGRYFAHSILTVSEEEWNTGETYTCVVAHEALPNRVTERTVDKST
Sequence of Human IgM (P01591 23-159 partner): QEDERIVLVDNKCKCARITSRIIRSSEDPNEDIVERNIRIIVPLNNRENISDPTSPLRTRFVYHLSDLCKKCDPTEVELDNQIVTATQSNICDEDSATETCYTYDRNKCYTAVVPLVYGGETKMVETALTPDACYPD

B1: DVD3769: DVD-Ig: VD1 hIgM (HB-57.3), SL linker, VD2 DNA (PA4); heavy SEQ ID NO 80, light 81 (antibody)
heavy: QVQLQQPGAEFVKPGAPVKLSCKASGYPFTTYWVNWMKQRPGRGLEWIGRIDPYDSETLYNQKFKDKATLTVDKSSSTAYIQLSSLTSEDSAVYYCARETYDYPFAYWGQGTLVTVSSASTKGPEVQLVESGGGLVKPGGSLKLSCVASGFTFSTYAMSWVRQTPTKRLEWVATISRGGVSTYYPDTVKGRFTISRDNAKNTLYLQMSSLRSEDTAMYYCARPPTIVTTWFAYWGQGTLVTVSS
light: DIVMTQSPSSLAMSVGQKVTMSCKSSQSLLNSSNQKNYLAWYQQKPGQSPELLVYFASTRESGVPDRFIGSGSGTDFTLTISSVQAEDLADYFCQQHYSTPFTFGSETKLEIKRTVAAPSVFIFPPDVVMTQTPLSLPVSLGDQASISCRSSQSLVHSNGNTYLHWYLQKPGQSPKLLIYKVSNRFSGVPDRFSGSGSGTDFTLKISRVEAEDLGAYFCSQSTHVPYTFGGPTRLEIKR
- potency in human IgM binding assay: highest potency

Reference: patent publication US20150125397A1, “DUAL SPECIFIC BINDING PROTEINS DIRECTED AGAINST IMMUNE CELL RECEPTORS AND AUTOANTIGENS” (ABBVIE INC., priority 2013, published 2015)
